Results published in patent US20120270768.

How the values were obtained:
[1] = system: Ac-GSSKFQ-AMC
[2] = system: Mu-HSSKLQ-AMC
[3] = system: Ac-GsAKYQ-AMC
[4] = system: Ac-GSSKYQ-AMC
[5] = system: Ac-GKSQYQ-AMC
[6] = system: Mu-HSSKLQ//L12ADT
[7] = system: Mu-SSKYQ//L12ADT

prostate specific antigen (PSA) showed a Kcat/Km [1] of 86 s^-1M^-1, a Km [1] of 666 µM and a kcat [1] of 0.057 s⁻¹. For the same substance, the Kcat/Km [2] was 23.6 s^-1M^-1, the Km [2] was 470 µM and the kcat [2] was 0.011 s⁻¹. The “Kcat against Mu-HSSKLQ-AMC” value [3] was “˜10-fold improvement in the Kcat kinetic parameter”, the Kcat/Km [3] was 218 s^-1M^-1 and the “Kcat/Km ratio against Mu-HSSKLQ-AMC” value [3] was “Kcat/Km ratios that were 10-fold higher than the Mu-HSSKLQ-AMC test peptide”. For the same substance, the Km [3] was 653 µM, the kcat [3] was 0.143 s⁻¹ and the “Kcat against Mu-HSSKLQ-AMC” value [4] was “˜10-fold improvement in the Kcat kinetic parameter”. The Kcat/Km [4] was 227 s^-1M^-1, the “Kcat/Km ratio against Mu-HSSKLQ-AMC” value [4] was “Kcat/Km ratios that were 10-fold higher than the Mu-HSSKLQ-AMC test peptide” and the Km [4] was 500 µM. For the same substance, the kcat [4] was 0.113 s⁻¹, the “Kcat against Mu-HSSKLQ-AMC” value [5] was “˜10-fold improvement in the Kcat kinetic parameter” and the Kcat/Km [5] was 278 s^-1M^-1. The “Kcat/Km ratio against Mu-HSSKLQ-AMC” value [5] was “Kcat/Km ratios that were 10-fold higher than the Mu-HSSKLQ-AMC test peptide”, the Km [5] was 343 µM and the kcat [5] was 0.09 s⁻¹. For the same substance, the “PSA hydrolysis (release of L12ADT, LC/MS)” value [6] was “the new prodrug was hydrolyzed dramatically better than the test peptide” and the “PSA hydrolysis (release of L12ADT, LC/MS)” value [7] was “the new prodrug was hydrolyzed dramatically better than the test peptide”.
